Measured values from patent US20060147922A1, “Novel diagnostic and therapeutic methods and reagents therefor” (priority 2002, published 2006).

Key:
[1] = target: GST fusion of mouse importin β1 (PTAC97) (mouse) (UniProt P70168); test: GST-importin β pull-down of IVT 35S-EDD, autoradiography
[2] = target: GSTchk2-N (GST fused to chk2 aa 1-225) (human) (UniProt O96017); test: pre-incubation of GSTchk2-N with the peptide, then pull-down of IVT 35S-EDD (competitor of EDD)
Chain of GSTchk2-N (GST fused to chk2 aa 1-225) (human) (O96017 1-225): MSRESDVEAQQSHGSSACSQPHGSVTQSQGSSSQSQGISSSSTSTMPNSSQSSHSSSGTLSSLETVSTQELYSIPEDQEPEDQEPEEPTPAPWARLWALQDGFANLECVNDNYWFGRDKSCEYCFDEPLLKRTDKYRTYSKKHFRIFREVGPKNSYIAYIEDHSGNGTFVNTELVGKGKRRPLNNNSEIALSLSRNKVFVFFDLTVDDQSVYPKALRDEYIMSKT

Chain of GST fusion of mouse importin β1 (PTAC97) (mouse) (P70168 whole entry, the tested form may be a part): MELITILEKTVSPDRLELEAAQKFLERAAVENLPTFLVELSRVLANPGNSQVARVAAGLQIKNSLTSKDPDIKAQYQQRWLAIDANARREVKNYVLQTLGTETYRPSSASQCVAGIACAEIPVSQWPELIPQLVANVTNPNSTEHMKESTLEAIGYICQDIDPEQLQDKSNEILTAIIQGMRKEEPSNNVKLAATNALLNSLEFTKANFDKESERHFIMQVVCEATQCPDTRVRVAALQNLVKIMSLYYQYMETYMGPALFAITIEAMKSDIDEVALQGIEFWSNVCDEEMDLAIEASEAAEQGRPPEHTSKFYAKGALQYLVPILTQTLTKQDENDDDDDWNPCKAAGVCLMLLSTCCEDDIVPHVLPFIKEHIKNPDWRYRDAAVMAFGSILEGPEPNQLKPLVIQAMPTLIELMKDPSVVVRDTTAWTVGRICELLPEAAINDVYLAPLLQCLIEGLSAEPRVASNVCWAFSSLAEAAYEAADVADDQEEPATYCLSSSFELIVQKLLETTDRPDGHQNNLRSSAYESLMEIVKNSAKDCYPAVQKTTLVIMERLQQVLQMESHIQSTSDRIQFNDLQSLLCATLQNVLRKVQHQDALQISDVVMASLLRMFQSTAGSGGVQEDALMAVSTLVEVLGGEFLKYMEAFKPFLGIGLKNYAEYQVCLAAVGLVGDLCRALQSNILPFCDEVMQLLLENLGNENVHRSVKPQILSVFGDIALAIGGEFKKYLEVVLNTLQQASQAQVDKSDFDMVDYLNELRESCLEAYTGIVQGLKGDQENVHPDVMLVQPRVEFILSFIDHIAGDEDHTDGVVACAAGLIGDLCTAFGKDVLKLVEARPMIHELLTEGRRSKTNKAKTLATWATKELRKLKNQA

Substance	percent of the available EDD protein pulled down [1] [%]	peptide concentration that abolished binding of EDD to chk2-N [2] [µM]
EDD protein, full length (aa 1-2799) (from UniProt O95071 1-2799)	5	
FHA-binding phosphopeptide RWFDT(P)YLIRR		> 50
